Source: patent US20260193375A1 (NORMUNITY, published 2026)
Positions count from the first letter of the chain named.

T1: Human LY6K (R&D Systems) (human, UniProt Q17RY6 18-138, limits assumed)
T1 construct: Bought from R&D Systems, coated on ELISA plates; also called hLY6K
T1 sequence: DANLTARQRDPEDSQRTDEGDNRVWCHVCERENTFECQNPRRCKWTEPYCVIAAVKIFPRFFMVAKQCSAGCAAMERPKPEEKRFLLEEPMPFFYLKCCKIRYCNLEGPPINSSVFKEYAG

T2: human LY6E (R&D Systems) (human, UniProt Q16553 21-101, limits assumed)
T2 construct: also called hLY6E
T2 sequence (looked up): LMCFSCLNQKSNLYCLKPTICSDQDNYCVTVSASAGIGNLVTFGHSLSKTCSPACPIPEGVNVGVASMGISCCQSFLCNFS

T3: cell-surface anchored LY6K (human, UniProt Q17RY6 18-138)
T3 construct: the cell is named under assay; also called LY6K on target cells
T3 sequence: T1 sequence

T4: recombinant human LY6K (Wuxi) (human, UniProt Q17RY6 18-138)
T4 construct: Limits of the construct not clearly stated; also called Human LY6K (Wuxi LY^KGLY138(1-38TR)_8His)
T4 sequence: T1 sequence

T5: rLY6K-mFc (rat)
T5 chain: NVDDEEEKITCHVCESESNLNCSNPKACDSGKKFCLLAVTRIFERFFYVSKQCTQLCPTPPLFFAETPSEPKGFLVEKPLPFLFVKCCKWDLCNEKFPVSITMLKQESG

T6: hLY6K-his (human, UniProt Q17RY6 18-138, limits assumed)
T6 construct: not shown: his tag
T6 sequence: T1 sequence

T7: hLY6K-mFc (human, UniProt Q17RY6 18-138)
T7 construct: not shown: mFc
T7 sequence: T1 sequence

T8: Ly6D
T8 chain: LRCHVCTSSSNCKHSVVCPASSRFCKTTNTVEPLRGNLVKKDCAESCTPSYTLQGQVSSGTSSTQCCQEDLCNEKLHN

T9: Ly6H
T9 chain: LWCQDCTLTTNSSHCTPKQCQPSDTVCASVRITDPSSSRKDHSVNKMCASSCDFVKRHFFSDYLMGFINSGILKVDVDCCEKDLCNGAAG

B1: anti-LY6K antibody 3724 (antibody, V domains shown)
VH: QLQLQESGPGLVKPSETLSLTCTVSGGSINSKSYYWDWIRQPPGKGLEWIGNIYYSGSTYYNPSLKSRVTISVDTSKNQFSLKLSSVTATDTAVYYCARHRGVTVTTYWYFDLWGRGTLVTVSS
VL: EIVLTQSPDFQSVTPKEKVTITCRASQSIGNSLHWYQQKSDQSPKLLIKYVSQSFSGVPSRFSGSGSGTDFTLTINSLEAEDAATYYCHQSSDFPHTFGQGTKLEIK
B2: anti-LY6K antibody 3704 (antibody, V domains shown)
VH: EVQLVESGGGLVQPGRSLRLSCAASGFTFDDYAMHWVRQAPGKGLEWVSGISWKIITIGYADSVKGRFTISRDNVKNSLYLQMNSLRAEDTALYYCAKDSRTGLDYWGQGTLVTVSS
VL: DIQMTQSPSSLSASVGDRVTITCRASQTISSYLNWYQQKPGKAPKLLIYAASSLQSGVPSRFSGSGSGTDFTLTISSLQPEDFATYYCQQTYTAPLTFGPGTKVDIK
B3: anti-LY6K antibody 3507 (antibody, V domains shown)
VH: EVQLVESGGGLVKPGGSLRLSCAASGFTFSSYSMNWVRQAPGKGLEWVSSISSSSDYIYYADSVKGRFTISRDDAKNSLYLQMNSLRAEDTAVYYCARGLEPNYYYYMDVWGKGTTVTVSS
VL: EIVMTQSPGTLSVSPGERATLSCRASQSVSSSYLAWYQQKPGQAPRLLIYGASTRATGIPARFSGSGSGTEFTLTISSLQSEDFAVYYCQQYNNWPLTFGGGTKVEIK
B4: anti-LY6K antibody 3503 (antibody, V domains shown)
VH: EVQLVESGGGLVKPGGSLRLSCAASGFIFSSYSMNWVRQAPGKGLEWVSSISSSSSYIYYADSEKGRFTISRDNAKNSLYLQMNSLRAEDTAVYYCARQSTVVTSDYYYYYMDVWGKGTTVTVSS
VL: DIQMTQSPSSLSASVGDRVTITCRASQSISNYLNWYQQKPGKAPNLLIYAASSLQSGVPSRFSGSGSGTDFTLTISSLQPEDFATYYCQQSYSPPITFGQGTRLEIK
B5: anti-LY6K antibody 3746 (antibody, V domains shown)
VH: B4 VH
VL: B4 VL
B6: anti-LY6K antibody 3520 (antibody, V domains shown)
VH: QVQLVQSGSELKKPGASVKVSCKASGYTFTLYAMNWVRQAPGQGLEWMGWINTNTGNPTYAQGFTGRFVFSLDTSVSTAYLQISSLKAEDTAVYYCARTNWNSWGQGTMVTVSS
VL: DIQMTQSPSSLSASVGDRVTITCQASQDISNYLHWFQQKPGKAPKLLIYDASNLETGVPSRFSGSGSGTDFTFTIFSLQPEDIATYYCQHYDNLPLTFGGGTKVEIK
B7: anti-LY6K antibody 3075 (antibody, V domains shown)
VH: QVQLVQSGSELKRPGASVKVSCKASGYTFIRYAMNWVRQAPGQGLEWMGWINTNTGNPTYAQGFTGRFVLSVDTSVSTAYLQISSLKVEDTAVYYCGRPGISSFEYWGQGTLVTVSS
VL: B6 VL with T20A, Q24R, S26T, H34D, F36Y, F76N, H90Q
B8: anti-LY6K antibody 3522 (antibody, V domains shown)
VH: QVQLQQSGPGLVKPSQTLSLTCAISGDSVSSNSAAWNWIRQSPSRGLEWLGRTYYRSKWYNDYAVSVKSRITINPDTSKNQFSLQLNSVTPEDTAVYYCARECSGSYYRFDPWGQGTLVTVSS
VL: DIVMTQTPLSSPVTLGQPASISCRSSQSLVHSNGNTYLSWLQQRPGQPPRLLIYKISHRFSGVPDRFSGSGAGTDFTLKIRRVEAEDVGVYYCMQATQFPYTFGQGTKLEIK
B9: anti-LY6K antibody 3047 (antibody, V domains shown)
VH: EVQLVESGGGLVQPGGSLRLSCAASGFTFSSYSMNWVRQAPGKGLEWVSGINWNGGSTGYADSVKGRFTISRDNAKNSLYLQMNSLRAEDTALYYCARGRLFDYWGQGTLVTVSS
VL: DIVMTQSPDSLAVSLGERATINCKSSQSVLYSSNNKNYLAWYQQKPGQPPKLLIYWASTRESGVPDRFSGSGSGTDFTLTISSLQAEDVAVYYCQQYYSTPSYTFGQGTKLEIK

molecular target: T1, Human LY6K (R&D Systems); test: ELISA, coated antigen, IgG1 at 10 ug/ml

% of maximum of commercial anti-LY6K mAb on human LY6K | Binder
6.2% | B1
2.2% | B2
2.6% | B3
66.6% | B4
76.9% | B5
61.2% | B6
58.3% | B7
2.1% | B8

molecular target: T10, cynomolgus monkey LY6K (R&D Systems) (cynomolgus monkey); test: ELISA, coated antigen, IgG1 at 10 ug/ml
T10 construct: also called cyLY6K

% of maximum of commercial anti-LY6K mAb on human LY6K | Binder
3.2% | B1
2% | B2
2.6% | B3
76.4% | B4
78.7% | B5
13.6% | B6
16.7% | B7
2.6% | B8
3% | B9

molecular target: T11, rat LY6K (R&D Systems) (rat); test: ELISA, coated antigen, IgG1 at 10 ug/ml
T11 construct: also called rLY6K

% of maximum of commercial anti-LY6K mAb on human LY6K | Binder
3.3% | B1
0.6% | B2
-1.2% | B3
0.7% | B4
3.1% | B5
0.7% | B6
0.7% | B7
0.7% | B8
1.5% | B9

molecular target: T2, human LY6E (R&D Systems); test: ELISA, coated antigen, IgG1 at 10 ug/ml

% of maximum of commercial anti-LY6K mAb on human LY6K | Binder
3.9% | B1
3.2% | B2
1.7% | B3
2.9% | B4
1.2% | B5
2.8% | B6
1.6% | B7
4.3% | B8
1.7% | B9

molecular target: T3, cell-surface anchored LY6K; test: IHC, paraffin sections of 293 cells overexpressing LY6K

binding result | Binder
no binding (tested: 5 ug/ml) | B1
no binding (tested: 5 ug/ml) | B2
no binding (tested: 5 ug/ml) | B3
no binding (tested: 5 ug/ml) | B8

molecular target: T4, recombinant human LY6K (Wuxi); test: ELISA, LY6K coated at 2 ug/mL, HRP-labelled mAb titrated

EC50 | Binder
2.67 nM | B4
3.04 nM | B5
2.34 nM | B6
1.56 nM | B7

Molecular target: T5, rLY6K-mFc
Test: SPR (Carterra LSA), mAb captured on anti-human IgG-Fc, antigen as analyte

Kd | Binder
129 nM | B9

molecular target: T6, hLY6K-his; test: as above

Kd | Binder | binding result
3.49 nM | B4 | 
2.5 nM | B5 | 
31.9 nM | B6 | 
 | B8 | no binding (tested: up to 1.266-6 M as printed)

molecular target: T7, hLY6K-mFc; test: as above

Kd | Binder | binding result
0.0553 nM | B4 | 
0.0362 nM | B5 | 
0.373 nM | B6 | 
 | B8 | no binding (tested: up to 1.266-6 M as printed)
2720 nM | B9 | 

molecular target: cyLY6K-mFc (cynomolgus monkey); test: as above

Kd | Binder
0.197 nM | B4
0.216 nM | B5
117 nM | B6
21600 nM | B9

Molecular target: T8, Ly6D
Test: ELISA, antigen coated on the plate, antibody as human IgG1, anti-human F(ab)2 HRPO

binding result | Binder
no binding (tested: 10 µg/ml) | B4
no binding (tested: 10 µg/ml) | B6

Molecular target: T9, Ly6H
Test: as above

binding result | Binder
no binding (tested: 10 µg/ml) | B4
no binding (tested: 10 µg/ml) | B6

molecular target: T2, human LY6E (R&D Systems); test: as above

binding result | Binder
no binding (tested: 10 µg/ml) | B4
no binding (tested: 10 µg/ml) | B6

molecular target: T3, cell-surface anchored LY6K; test: flow cytometry on target cells, MFI fitted in Prism; flow cytometry, live target cells, 4 degrees C

EC50 | Binder
0.576 nM | B4
3.21 nM | B5
3.61 nM | B6
0.805 nM | B7

molecular target: T4, recombinant human LY6K (Wuxi); test: capture ELISA (MSD): antibody coated as capture at 2 µg/mL, recombinant human LY6K titrated, sulfo-tagged polyclonal anti-hLY6K (AF6648) for detection; EC50 is the LY6K concentration

EC50 | Binder
0.064 µg/mL | B4
0.536 µg/mL | B6
